Where no end group is shown, it is not given here. Side-chain parts run from the residue outwards. 4‑arm PEG 10 kDa = 10 kDa 4-armed polyethylene glycol
Experiments:
recombinant mouse Tie2Fc = target: T1, recombinant mouse Tie2Fc (mouse, UniProt Q02858 23-743); assay: tryptophan fluorescence spectroscopy
T1 chain: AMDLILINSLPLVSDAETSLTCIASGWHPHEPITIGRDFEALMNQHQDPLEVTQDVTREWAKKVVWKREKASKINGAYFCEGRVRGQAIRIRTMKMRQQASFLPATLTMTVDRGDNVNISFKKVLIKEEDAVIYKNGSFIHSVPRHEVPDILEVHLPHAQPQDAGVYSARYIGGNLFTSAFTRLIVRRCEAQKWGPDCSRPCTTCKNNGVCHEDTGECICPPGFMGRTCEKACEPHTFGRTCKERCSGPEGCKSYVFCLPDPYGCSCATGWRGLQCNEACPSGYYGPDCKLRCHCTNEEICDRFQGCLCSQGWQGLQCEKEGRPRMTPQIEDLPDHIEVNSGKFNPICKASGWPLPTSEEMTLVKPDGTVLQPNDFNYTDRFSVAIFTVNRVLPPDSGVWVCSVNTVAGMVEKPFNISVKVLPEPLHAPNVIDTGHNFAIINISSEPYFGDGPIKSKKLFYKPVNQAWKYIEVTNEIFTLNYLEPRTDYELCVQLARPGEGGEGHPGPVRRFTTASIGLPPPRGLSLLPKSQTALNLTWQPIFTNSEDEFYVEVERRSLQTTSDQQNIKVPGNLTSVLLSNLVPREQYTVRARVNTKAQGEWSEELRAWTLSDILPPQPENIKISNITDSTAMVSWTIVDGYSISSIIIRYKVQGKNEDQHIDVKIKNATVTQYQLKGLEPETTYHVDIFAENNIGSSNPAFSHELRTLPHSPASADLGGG

recombinant human Tie2Fc = target: T2, recombinant human Tie2Fc (human, UniProt Q02763 23-745); assay: tryptophan fluorescence spectroscopy in solution, non-linear regression one site specific binding
T2 construct: Bought from R&D Systems; not shown: human IgG Fc
Text: The specific signal was derived by subtraction of the fluorescence intensity generated by ligand alone from the receptor and ligand complex.
Ligand and receptor interaction. […] Data was compiled using SoftMax and analyzed using Prism.

[1] = target: human Tie2 receptor on human endothelial cells (HUVEC, HMVECtert) (human, UniProt Q02763 23-1124); assay: cell-based or functional assay
recombinant rat Tie2-FC = target: T3, recombinant rat Tie2-FC (Rattus norvegicus, UniProt A0ABK0L6J5 19-740); assay: tryptophan fluorescence spectroscopy
T3 chain: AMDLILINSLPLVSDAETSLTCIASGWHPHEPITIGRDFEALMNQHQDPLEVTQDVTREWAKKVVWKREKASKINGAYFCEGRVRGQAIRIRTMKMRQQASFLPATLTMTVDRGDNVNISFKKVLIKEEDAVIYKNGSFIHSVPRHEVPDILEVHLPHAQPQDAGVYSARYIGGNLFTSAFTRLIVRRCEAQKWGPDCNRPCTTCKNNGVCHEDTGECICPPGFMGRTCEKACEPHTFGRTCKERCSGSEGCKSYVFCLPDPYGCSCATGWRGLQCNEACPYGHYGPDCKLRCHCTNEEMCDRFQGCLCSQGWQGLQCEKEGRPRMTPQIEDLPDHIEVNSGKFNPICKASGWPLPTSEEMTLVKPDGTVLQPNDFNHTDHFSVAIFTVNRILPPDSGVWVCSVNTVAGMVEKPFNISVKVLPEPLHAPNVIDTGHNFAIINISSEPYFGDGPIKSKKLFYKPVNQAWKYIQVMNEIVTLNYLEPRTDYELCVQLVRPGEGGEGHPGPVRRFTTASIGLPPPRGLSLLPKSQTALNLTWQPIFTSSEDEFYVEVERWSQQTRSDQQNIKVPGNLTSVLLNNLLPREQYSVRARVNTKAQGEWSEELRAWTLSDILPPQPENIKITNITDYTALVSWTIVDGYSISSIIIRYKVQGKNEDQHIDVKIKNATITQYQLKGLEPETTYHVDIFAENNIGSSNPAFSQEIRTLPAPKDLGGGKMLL

[2] = target: T4, recombinant cynomolgus monkey Tie2-FC (Macaca fascicularis, UniProt G7PS68 23-748); assay: tryptophan fluorescence spectroscopy
T4 chain: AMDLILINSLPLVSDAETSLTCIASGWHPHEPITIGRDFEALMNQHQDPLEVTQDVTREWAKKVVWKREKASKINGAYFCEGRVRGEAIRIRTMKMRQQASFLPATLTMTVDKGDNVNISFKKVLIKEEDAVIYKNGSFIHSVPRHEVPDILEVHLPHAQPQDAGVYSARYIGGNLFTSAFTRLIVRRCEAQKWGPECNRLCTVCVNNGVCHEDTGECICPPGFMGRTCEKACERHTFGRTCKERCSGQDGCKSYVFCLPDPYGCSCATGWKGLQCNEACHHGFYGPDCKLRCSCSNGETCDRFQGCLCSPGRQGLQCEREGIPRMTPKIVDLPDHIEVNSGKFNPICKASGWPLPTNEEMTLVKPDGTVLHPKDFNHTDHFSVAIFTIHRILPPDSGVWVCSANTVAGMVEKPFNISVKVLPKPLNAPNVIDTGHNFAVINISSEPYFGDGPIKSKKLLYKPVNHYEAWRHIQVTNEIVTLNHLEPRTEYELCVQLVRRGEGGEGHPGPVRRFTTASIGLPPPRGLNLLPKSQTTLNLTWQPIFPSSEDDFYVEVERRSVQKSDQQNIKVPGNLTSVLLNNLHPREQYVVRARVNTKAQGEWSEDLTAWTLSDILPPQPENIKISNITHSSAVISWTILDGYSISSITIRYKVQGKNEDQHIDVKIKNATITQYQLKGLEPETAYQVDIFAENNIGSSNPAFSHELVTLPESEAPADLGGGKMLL

B1: parental Vasculotide (peptide)
peptide: C([maleimide-4‑arm PEG 10 kDa])HHHRHSF
modifications: also: tetramer: four copies on 4-armed 10 kDa PEG, mixture of succinimide and thiazine ring products
notes: Manufactured by Bachem; also called VT; parental VT
Kd (recombinant mouse Tie2Fc): 35 nM

B2: MPA-Br (peptide)
peptide: HHHRHSF-OH
modifications: not fully specified (N-terminus); also: tetramer: four copies on (bromoacetimide)4-PEG10K
notes: Mpa is not an amino acid; also called mBr; AV-001
Kd (recombinant human Tie2Fc): 2.62 nM | relative magnitude of Tie2 activation in HMVECtert [1]: ~3.3 fold | Kd (recombinant rat Tie2-FC): 4.21 nM | Kd [2]: 0.0229 nM | Kd (recombinant mouse Tie2Fc): 6.82 nM
